Results on 1 molecule are retold here after patent US7105647 (WISCONSIN ALUMNI RESEARCH FOUNDATION, dated 2006).

In test [1] the target is T1, human aryl hydrocarbon receptor (AHR), full length (human, UniProt P35869 1-848).
T1 construct: Full length in yeast (PRSAHR) and in the Hsp90 co-IP (huAHR); also called huAHR; Ah receptor
T1 sequence (looked up): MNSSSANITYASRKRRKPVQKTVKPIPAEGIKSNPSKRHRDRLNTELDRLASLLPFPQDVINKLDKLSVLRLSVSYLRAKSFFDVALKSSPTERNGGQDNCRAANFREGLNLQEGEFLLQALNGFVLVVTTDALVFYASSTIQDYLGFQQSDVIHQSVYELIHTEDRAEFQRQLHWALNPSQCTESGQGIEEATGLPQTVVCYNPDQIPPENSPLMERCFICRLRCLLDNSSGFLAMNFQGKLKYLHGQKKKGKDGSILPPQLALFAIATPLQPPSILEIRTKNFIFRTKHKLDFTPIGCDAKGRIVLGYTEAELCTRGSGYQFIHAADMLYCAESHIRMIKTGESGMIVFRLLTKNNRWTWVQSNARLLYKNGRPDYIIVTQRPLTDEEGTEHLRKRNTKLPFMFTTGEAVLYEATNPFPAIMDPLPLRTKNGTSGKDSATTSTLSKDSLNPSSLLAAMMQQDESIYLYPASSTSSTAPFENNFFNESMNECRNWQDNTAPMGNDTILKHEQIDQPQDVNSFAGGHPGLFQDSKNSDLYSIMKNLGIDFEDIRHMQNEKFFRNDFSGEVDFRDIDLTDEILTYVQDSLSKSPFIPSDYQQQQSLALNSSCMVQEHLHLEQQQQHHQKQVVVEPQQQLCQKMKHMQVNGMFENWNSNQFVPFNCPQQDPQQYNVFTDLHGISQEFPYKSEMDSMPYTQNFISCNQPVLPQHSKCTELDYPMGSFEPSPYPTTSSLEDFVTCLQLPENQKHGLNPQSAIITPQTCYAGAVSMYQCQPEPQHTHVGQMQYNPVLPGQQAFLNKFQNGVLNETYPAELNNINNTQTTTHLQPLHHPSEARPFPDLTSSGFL
Nature of the test: yeast two-hybrid, lacZ reporter, with and without 1 µM βNF. An excerpt:
(§1) This plasmid was designated PL371, and subsequently was digested with NotI and XhoI, this fragment cloned into the corresponding sites of pSGBCU11. This clone was designated PL574. The LexAMOP fusion protein constructs were cotransformed with a yeast expression vector containing the full length AHR or ARNT into L40, a yeast strain containing integrated lacZ and HIS3 reporter genes. As controls, LexAAHR and LexAARNT were cotransformed with AHR and ARNT. The strength of interaction was visually characterized by X-Gal (5-bromo-4-chloro-3-indolyl-(-D-galactoside) plate assays, performed after three days growth on selective media (Bohen et al, Proc. Natl. Acad. Sci. USA 90: 11424–11428, 1993). To provide quantitation of the interaction strength, multiple colonies from yeast harboring each bHLH-PAS combination colonies were grown overnight in liquid media. Liquid cultures were grown for 5 hours, and assayed for lacZ activity using the Galacto-Light chemiluminescence reporter system (Tropix, Bedford, Mass.). To determine the effect of AHR agonists on these interactions, yeast were also grown on plates or in liquid culture with and without 1 μM βNF (Carver et al., J. Biol. Chem. 269: 30109–30112, 1994).
(§2) 2. Interaction of MOPs with the AHR and ARNT in vivo; Yeast two-hybrid experiments. […]

Test [2] deals with T2, AH receptor nuclear translocator (ARNT), full length (human, UniProt P27540 1-789).
T2 construct: Full length: in vitro translated, expressed in yeast (PL574) or transfected; Endogenous ARNT in the Hep3B experiment; also called huARNT; hARNT
T2 sequence (P27540 whole entry): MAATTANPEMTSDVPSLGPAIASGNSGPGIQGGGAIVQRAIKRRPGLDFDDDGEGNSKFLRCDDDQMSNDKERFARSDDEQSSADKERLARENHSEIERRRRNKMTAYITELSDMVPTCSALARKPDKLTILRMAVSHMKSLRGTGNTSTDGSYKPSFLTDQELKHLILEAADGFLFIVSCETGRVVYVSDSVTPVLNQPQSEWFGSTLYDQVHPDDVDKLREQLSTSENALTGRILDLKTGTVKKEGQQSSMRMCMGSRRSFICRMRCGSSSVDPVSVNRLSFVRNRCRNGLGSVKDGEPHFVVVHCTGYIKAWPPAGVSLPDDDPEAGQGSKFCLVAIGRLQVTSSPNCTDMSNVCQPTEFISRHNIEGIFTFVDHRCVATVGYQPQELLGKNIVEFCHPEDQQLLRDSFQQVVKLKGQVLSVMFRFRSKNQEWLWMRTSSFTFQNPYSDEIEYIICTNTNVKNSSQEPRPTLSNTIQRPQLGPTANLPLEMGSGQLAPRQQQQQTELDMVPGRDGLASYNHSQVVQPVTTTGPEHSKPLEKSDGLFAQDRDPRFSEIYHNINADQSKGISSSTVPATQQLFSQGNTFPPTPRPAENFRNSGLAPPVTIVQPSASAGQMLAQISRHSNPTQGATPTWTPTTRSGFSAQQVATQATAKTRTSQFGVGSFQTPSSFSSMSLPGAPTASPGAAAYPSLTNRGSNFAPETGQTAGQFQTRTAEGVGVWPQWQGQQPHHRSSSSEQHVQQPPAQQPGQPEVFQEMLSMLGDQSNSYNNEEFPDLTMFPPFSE
The test can be described thus: yeast two-hybrid with full-length ARNT, lacZ reporter.
From the text: as §1, §2

B1: LexAMOP4 (other)
chain: MKALTARQQEVFDLIRDHISQTGMPPTRAEIAQRLGFRSPNAAEEHLKALARKGVIEIVSGASRGIRLLQEEEEGLPLVGRVAAGEPLLAQQHIEGHYQVDPSLFKPNADFLLRVSGMSMKDIGIMDGDLLAVHKTQDVRNGQVVVARIDDEVTVKRLKKQGNKVELLPENSEFKPIVVDLRQQSFTIEGLAVGVIRNGDWLMDEDEKDRAKRASRNKSEKKRRDQFNVLIKELSSMLPGNTRKMDKTTVLEEVIGFLQKHNEVSAQTEICDIQQDWKPSFLSNEEFTQLMLEALDGFIIAVTTDGSIIYVSDSITPLLGHLPSDVMDQNLLNFLPEQEHSEVYKILSSHMLVTDSPSPEYLKSDGDLEFYCHLLRGSLNPKEFPTYEYIKFVGNFRSYNNVPSPSCNGFDNTLSRPCRVPLGKEVCFIATVRLATPQFLKEMCIVDEPLEEFTSRHSLEWKFLFLDHRAPPIIGYLPFEVLGTSGYDYYHIDDLELLARCHQHLMQFGKGKSCCYRFLTKGQQWIWLQTHYYITYHQWNSKPEFIVCTHSVVSYADVRVERRQELA
notes: range 1-202; also called LexAbHLH-PAS fusion of MOP4; MOP4 bait plasmid
Regarding B1, the binding result in test [1] and in test [2] was “no binding” in each case.
